Assay [1] addresses T1, human mature (34+14-kDa) Cath-D (human, UniProt P07339 65-162; P07339 169-412).
T1 construct: domain: 14-kDa light chain;domain: 34-kDa heavy chain; Purified from human liver (Sigma Aldrich); also called mature Cath-D; mature cath-D
In words: cleavage of fluorogenic substrate M0938 by mature Cath-D at pH 6, competitive inhibition fit (n=3).

For assay [2], the target named is T2, human 51-kDa pseudo-Cath-D (human, UniProt P07339 47-412, limits assumed).
T2 construct: domain: 51-kDa pseudo-Cath-D
In words: cleavage of fluorogenic substrate M2295 by pseudo-Cath-D at pH 6, competitive inhibition fit (n=3).

One may read the Ki as a dissociation constant, usually derived from enzyme kinetics or from competition with a known ligand. Higher therefore signals weaker binding.

T2 sequence (P07339 47-412 limits assumed): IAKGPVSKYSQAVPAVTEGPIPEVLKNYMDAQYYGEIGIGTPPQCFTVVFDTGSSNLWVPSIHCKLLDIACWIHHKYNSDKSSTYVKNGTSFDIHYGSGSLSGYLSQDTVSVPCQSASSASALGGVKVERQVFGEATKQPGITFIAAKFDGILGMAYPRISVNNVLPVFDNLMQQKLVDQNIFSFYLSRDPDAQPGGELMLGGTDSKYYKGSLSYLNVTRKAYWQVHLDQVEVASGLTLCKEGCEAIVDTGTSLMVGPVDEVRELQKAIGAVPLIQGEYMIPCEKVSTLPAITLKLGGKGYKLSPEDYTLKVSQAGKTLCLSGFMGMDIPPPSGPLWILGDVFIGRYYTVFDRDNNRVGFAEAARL
T1 sequence (P07339 65-162 limits assumed, chain 1 of 2): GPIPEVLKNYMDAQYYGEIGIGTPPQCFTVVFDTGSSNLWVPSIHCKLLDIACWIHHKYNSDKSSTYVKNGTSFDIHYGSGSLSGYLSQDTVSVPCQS
T1 sequence (P07339 169-412 limits assumed, chain 2 of 2): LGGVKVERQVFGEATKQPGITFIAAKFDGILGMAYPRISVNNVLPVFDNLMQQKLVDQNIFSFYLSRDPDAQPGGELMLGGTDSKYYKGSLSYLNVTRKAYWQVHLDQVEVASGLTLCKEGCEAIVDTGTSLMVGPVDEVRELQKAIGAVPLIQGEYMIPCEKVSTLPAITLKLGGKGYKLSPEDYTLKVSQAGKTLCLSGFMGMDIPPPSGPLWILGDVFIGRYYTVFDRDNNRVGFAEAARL

B1: anti-Cath-D scFv E2 (scFv, V domains shown)
VH: EVQLVESGGSLVKPGGSLRLSCAASGFTFSNSYMNWVRQAPGKGLEWISYISGSSRYSYADFVKGRFTISRDNATNSLYLQMNSLRAEDTAVYYCVRSSNSYFGGGMDVWGRGTLVTVSS
VL: QSVLTQPASVSGSPGQSITISCAGTSSDVGGSYGVSWYQQHPGKAPKLMIYGDSYRPSGVSNRFSGSKSGNTASLTISGLQAEDEADYYCSSYTNYSTRVFGGGTKLAVL
For B1, the inhibitory constant (Ki) in assay [1] was 24 nM; in assay [2], 754 nM.

B2: anti-Cath-D scFv F1 (scFv, V domains shown)
VH: EVQLVESGGSLVKPGGSLRLSCAASGFTSNNYMNWVRQAPGKGLEWISYISGSSRYISYADFVKGRFTISRDNATNSLYLQMNSLRAEDTAVYYCVRSSNSGGMDVWGRGTLVTVSS
VL: QSVLTQPASVSGSPGQSITISCAGTSSDVGGYYGVSWYQQHPGKAPKLMIYYDSYRPSGVSNRFSGSKSGNTASLTISGLQAEDEADYYCSSYTSNSTRVFGGGTKLAVL
B2: the inhibitory constant (Ki) in assay [1] stood at 100 nM; in assay [2], 212 nM.

The values above are taken from patent publication US20180127510A1 (INSERM INSTITUT NATIONAL DE LA SANT ET DE LA RECHERCHE M …, published 2018).
